Experimental data reported in the domain aggregation screens of Martell et al. (2025).

test: soluble fraction after stress (log2 fold change); higher = more stays soluble; pooled small domains, quantitative proteomics; settings: stress: pH 4
Method in brief: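 How much of each domain stays soluble after acid stress, expressed as a fold change, is used to gauge aggregation propensity. Pooled custom libraries of small domains underwent pH 4 stress before high-throughput quantitative proteomics. A higher log2 value means more of the domain stayed soluble.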

| Sequence | soluble fraction (log2) |
| --- | --- |
| HMVTLPLLKRGHTGLPVKALQTLLVLRGMSVDVDGSFGEKTESAVRTFQTAAKILSDGEVGKDTWKALI | -0.911 |
| HMVTPPMVVVDVQGEVKTPGVYHLPTNSRVNDAIKAAGGPKQSADLSYINQARMVKDGEQIYVEKKL | 0.0679 |
| HMVTTDPIADMLTRIRNASSQKHKSVDVPASKEKLAIAQILFEEGYIKSFEEIKEENNQGVIRITLKYTEK | -0.0598 |
| HMVTVPNYSDPRQYVEWGNANGITINRAVGDTIASMSGRVQDVRDSNGNSVIGKKVKKGSTVTVYIYFLK | -0.0785 |
| HMVTVSAVNITPKGHTTVGFTDRSVNPPSNYYLRVGESADGWTVKDADFDDEIATLEKDGVAITLKL | -0.548 |
| HMVTYELTEDEKFIVSLLEKENSQPIGALKDKSALSGKKWDAAMKGLAKHGLTKVVVDGDNKLVVL | -0.184 |
| HMVVEDDTVLQAVKQAIEENPEAVSDYFEGKSKALNFLVGQVMRITRGKADPAKTNQMVVEELKNR | 0.112 |
| HMVVMKGKVKWFNKNKGYGFIITDDNKEYFVHWKSIVTNSPRELKVLEQDELVTFDLMETDKGIQAINII | -1.22 |
| HMVVPELNLAQQDVLRALRQRGRATADHLSVDTHRPVSEVMGILLGLEIAEVLYRVEGGWFVPKTAR | -1.04 |
| HMVVSDKIAFSSFLKSVEDGRVVEVEITGNDIRGILSDGTVFNTYAPNDPNLVEKLTSKGVNITALPKE | 0.0738 |
| HMVVYQRVHDEILQALKDNVYPVGTLLPPEPELERIYSVSRTTVRRAIAKLSEEGYVQVRQGYGTMVLKN | 0.22 |
| HMWGAYHDGQVVKFPKKVTVYVIDGQYKRPLANEFVLKFLNYKTSDIIIDKDGNLNNYKNGAVVEH | -0.332 |
| HMWMQKILGNYIAARRKELGMTQANLAEKIHVTDKAVSRWERGVGLPDIENLEALAKALEVSLVSLMQGKT | 0.22 |
| HMWNGIVDAGKARQHLMNLSQLGVGRRAVAAASDVAETVLMDIRSGTKTRIRARTERQILAVTPEMA | 0.22 |
| HMWNTADDIKEAIWKLIQSEDPKKPYSDLKISQLLLEKEMKISRRTVAKYRKEMGILGTYSRK | 0.23 |
| HMWQPIKLDRGDWQNSLQVGDRVFVRGIPRPVEILSAVDEENNIEVLMGTMRAKIPVYQLDKPAENFIDTT | -0.711 |
| HMWQVVEVDYGTFMSMTEDGQVGRVEIQEQENLILFTDQEETTVYKTAMVDDPDLTARLHDAGIPFYGQE | -2.29 |
| HMWSGEPFLDELRHADTLLETDPEAALAEYRALADKGSAAAMMALGNAYASGSHVARDEGEAEHWYRRAA | -0.752 |
| HMWSLLVILQLREGGQRFSQLQRAIPDISQRMLTQTLRKLERDGLVSRKVTPSTPPRVDYAITELGH | -0.556 |
| HMWSQEPEYRPLYNSMDGFDAGQVVEMLQQSRIDYKVEPNSGALLVRSEDLADARLRLASAGISP | -0.959 |
| HMYAEVTITIEKGMTSDSVSKLLYKAGIVDDAKEFNNYIIKAGKSTKILIGEFTIQKGASYDDIIKIIA | -0.133 |
| HMYAGTVTQVKNNKVMLEFDGETVNVGDQFFILNSDGKKVAIVEITAAKNKKALANVLKGKAVVDGTTQAK | -0.404 |
| HMYAVDTIHKGTITEMTDKGAVVSLGDNIDGFAPARQLVKEDGTTLKLGDTADFKVIEFSKATKRITLSH | 0.094 |
| HMYAVQKGDTLKKIADQFGISVDTIKWANDMKGDALSIDQELKIP | 0.0154 |
| HMYDAEAINKFFDIENWDFGETFYFQELSAYIMNQLSPKLVTILIVPRQTTQAFGSLFEIKSEPDEIFAS | -0.0578 |
| HMYDDEELDVLAHRPIESYTDAELAMLREVAETLLETDYEGWLKSLSMRGILLPPEILQLVT | -1.29 |
| HMYDDLEPFDANGRLRWSDKELILAFGRHRGVTLQTLELNDPGYLRWLLSGNGPLEQQDRKRLEDILES | -1.36 |
| HMYDEKTLRKAVLDYVRDNDDGRLDLMKIDSYLTSRYGNIDYAALGYNRLSMFISSFPELRRNSNYVTLRK | -0.158 |
